Entries after “also recorded” stand apart in the source; their conditions may differ.
Key:
Format in all cases: cell-based
PP2A [1] = experiment: Ubiquitin-dependent regulation of PP2A in embryonic fibroblasts, Western blot; settings: OS-derived cells
Description: Tissue culture. We obtained embryonic fibroblasts from the Max-Planck Institute for Cell Biology (Ladenburg, Germany) and purchased COS7 cells from the American Type Culture Collection (ATCC). Establishment of an embryonic fibroblast cell line from an OS-affected fetus has been described previously^4. We transfected COS7 cells following the Clontech protocol using LipofectACE. Expression was optimal 24-48 h after transfection. […] We determined integration copy number by Southern blot analysis. […]
For proteasome inhibition, we incubated embryonic fibroblasts with varying concentrations (10-50 μM) of LLnL (Sigma) for 2 h or with 10 μM of lactacystin (Sigma) for 5 h. […] Protein concentrations were determined with a Bradford assay. […]
For embryonic fibroblasts, we lysed 8×10^6 cells in IP1 buffer. […] We carried out densitometric quantification using the PCB computer program.
To obtain direct evidence for ubiquitin-dependent regulation of cytosolic PP2A, we analyzed amounts of cytosolic PP2A in embryonic fibroblasts, previously shown to contain large amounts of endogenous MID1 (ref. 2), after treatment with the proteasome inhibitor LLnL (FIG. 4b).

PP2A [2] = experiment: Cytosolic PP2A in 293 cells expressing MID1-V5, Western blot; settings: 293 cells expressing MID1-V5 versus control cells
Description: Immunoprecipitation, western blotting and immunofluorescence. For COS7 cells, we lysed in IP1 buffer 8×10^6 cells transfected with pBudCE4 vector carrying the respective cDNAs. After preclearing the lysate with 50 μl protein A-agarose (slurry), we incubated supernatants with 2 μg anti-V5 overnight at 4° C. and then for 2 h with 75 μl (slurry) protein A-agarose. After three washes in IP1 buffer, we eluted the proteins with 1× Laemmli buffer at 95° C. MID1-V5 expression was optimal 48 h after doxycyclin removal from 293 tet-off cell lines. We then lysed cells in IP1 buffer and carried out immunoprecipitation with 2 μg anti-V5. We boiled proteins in 1×SDS-PAGE buffer, separated them on 10% and 12% SDS gels, blotted on PVDF membranes (Roche) and blocked and incubated with the respective primary antibody according to the manufacturer's instructions.
If so, increased MID1 expression should coincide with a decrease of cytosolic PP2A. To test this hypothesis, we analyzed lysates containing equal amounts of protein from 293 cells expressing MID1-V5 (FIG. 4a, lane1) and control cells (FIG. 4a, lane 3) by western blotting with a polyclonal antibody that detects the C subunit of PP2A.

Gli3 [3] = experiment: Localization of GFP-GLI3 in cultured U373MG cells; settings: 24 hours after transfection, 100 cells counted
Description: COS7-HELA- and U373MG-cells were transfected using PolyFect Transfection Reagent (Qiagen, cat. no. 301107) according to the manufacturer's instructions. Gli3 cDNA was cloned into pEGFP-C1 and pEGFP-N3 vectors (Clontech) respectively. 100 transfected cells per experiment (Gli3-GFP, GFP-Gli3, Gli3-GFP+myc-MID1, GFP-Gli3+myc-MID1, Gli3-GFP+myc-BBox1, GFP-Gli3+myc-BBox1) were counted and analysed for Gli3 localization. Experiments were repeated twice. […] PCMV-Tag3 vector from Stratagene was used for myc-MID1 and myc-BBox1 overexpression.

Gli3 [4] = experiment: Localization of overexpressed GFP-tagged Gli3 in HeLa cells; settings: GFP-tagged Gli3-overexpressing HeLa cells
Description: 1×10^5 HELA cells per well of a 6-well plate were transfected with Qiagen Polyfect transfection reagent according to the manufacturer's instructions. The ratio of the amount of DNA to the amount of polyfect transfection reagent was 3 μg DNA/10 μl Polyfect. Constructs used for expression in HELA were the following: GFP-GLI3 (aa 18-1549), GLI3-GFP (aa 1-1522), MYC-GLI3 (aa 18-1596), FLAG-GLI3 (aa18-1596), MYC-B-BOX1 (aa 110-167 of the MID1 protein), ALPHA4-V5 (aa 1-339). 24 h after transfection immunofluorescence was performed. GFP-constructs were treated as described in Schweiger et al., 1999. Immunofluorescence with MYC-tagged and FLAG-tagged constructs was done according to Trockenbacher et al., 2001. FLAG-tagged constructs were detected with anti-FLAG-antibody diluted 1:500, the secondary antibody FITC-antimouse was diluted 1:1000. For MYC-tagged constructs anti-MYC-antibody 1:300 and CY3-antirabbit 1:1000 were used. […]
Overexpressed Gli3 is predominantly localized in the nucleus (FIG. 10, top left).

patched gene = experiment: Patched-specific semiquantitative RT-PCR of HeLa cells; settings: compared to mock-transfected cells
Description: One of the most important targets of the Gli3 transcription factor is the patched gene. In order to analyse HeLa cells for Gli3 activity after treatment with the different molecules, semiquantitative RT-PCR of cells overexpressing the B-Box1 and the α4 protein was carried out (FIG. 13). HeLa cells have previously been tested for Gli3-, Gli1 (another target of the Gli3 transcription factor) and patched-expression.

B1: MID1: RING-finger protein that interacts with the α4 subunit of microtubule associated PP2Ac; overexpressed from cDNA (protein)
chain: METLESELTCPICLELFEDPLLLPCAHSLCFNCAHRILVSHCATNESVESITAFQCPTCRHVITLSQRGLDGLKRNVTLQNIIDRFQKASVSGPNSPSETRRERAFDANTMTSAEKVLCQFCDQDPAQDAVKTCVTCEVSYCDECLKATHPNKKPFTGHRLIEPIPDSHIRGLMCLEHEDEKVNMYCVTDDQLICALCKLVGRHRDHQVAALSERYDKLKQNLESNLTNLIKRNTELETLLAKLIQTCQHVEVNASRQEAKLTEECDLLIEIIQQRRQIIGTKIKEGKVMRLRKLAQQIANCKQCIERSASLISQAEHSLKENDHARFLQTAKNITERVSMATASSQVLIPEINLNDTFDTFALDFSREKKLLECLDYLTAPNPPTIREELCTASYDTITVHWTSDDEFSVVSYELQYTIFTGQANVVSLCNSADSWMIVPNIKQNHYTVHGLQSGTKYIFMVKAINQAGSRSSEPGKLKTNSQPFKLDPKSAHRKLKVSHDNLTVERDESSSKKSHTPERFTSQGSYGVAGNVFIDSGRHYWEVVISGSTWYAIGLAYKSAPKHEWIGKNSASWALCRCNNNWVVRHNSKEIPIEPAPHLRRVGILLDYDNGSIAFYDALNSIHLYTFDVAFAQPVCPTFTVWNKCLTIITGLPIPDHLDCTEQLP
modifications: left off: large carriers
notes: overexpressed from cDNA
- PP2Ac amount after transfection (PP2A [1]): normalizes the amount of PP2Ac
- Cytosolic phosphatase 2A level (PP2A [2]): downregulated
- GFP-GLI3 localization (Gli3 [3]): No change

B2: α4: regulatory subunit of PP2A encoded by human IGBP1, overexpressed (protein, UniProt P78318 2-339, looked up)
Immunoglobulin-binding …: AAEDELQLPRLPELFETGRQLLDEVEVATEPAGSRIVQEKVFKGLDLLEKAAEMLSQLDLFSRNEDLEEIASTDLKYLLVPAFQGALTMKQVNPSKRLDHLQRAREHFINYLTQCHCYHVAEFELPKTMNNSAENHTANSSMAYPSLVAMASQRQAKIQRYKQKKELEHRLSAMKSAVESGQADDERVREYYLLHLQRWIDISLEEIESIDQEIKILRERDSSREASTSNSSRQERPPVKPFILTRNMAQAKVFGAGYPSLPTMTVSDWYEQHRKYGALPDQGIAKAAPEEFRKAAQQQEEQEEKEEEDDEQTLHRAREWDDWKDTHPRGYGNRQNMG
modifications: V5 tag
notes: regulatory subunit of PP2A encoded by human IGBP1, overexpressed
- Gli3 localization (Gli3 [4]): significant release of GFP-Gli3 to the nucleus
- patched message (patched gene): increased amount of PCR-product; also recorded: increase of the patched message
